Measured values reported in patent US8697369B2, “Method for screening a test substance for activating a receptor associated with FGF 21 activity” (National Institute of Advanced Industrial Science and …, priority 2007, dated 2014).
Entries after “also recorded” stand apart in the source; their conditions may differ.

Columns and labels:
[1] = system: FGFR3c/betaKlotho-expressing BaF3 cells; assay: DNA synthesis (thymidine incorporation) in FGFR3c/betaKlotho-expressing BaF3 cells; assay type: cell-based, mouse; conditions: BaF3 cells expressing FGFR3c and betaKlotho
Description: (§1) A commonly used measurement method is a cell growth stimulating activity measurement method described in Ornitz, D. M., Xu, J., Colvin, J. S., McEwen, D. G., MacArthur, C. A., Coulier, F., Gao, G. and Goldfarb, M. (1996) Receptor specificity of the fibroblast growth factor family. J Biol Chem, 271, 15292-15297. The summary thereof is as follows. FGF used as a measurement target is added to a culture solution containing a cultured cell having an FGF receptor on the surface thereof, and the obtained mixture is cultured for a certain period of time. Thereafter, a labeled thymidine is added to the culture solution, followed by further culture for a certain period of time. By measuring the amount of the labeled thymidine incorporated into polymeric DNA during the culture, the degree of FGF to activate DNA synthesis is evaluated. (In the present invention as well, this method was adopted when the activity of FGF21 was measured in Examples 4, 5, 6, 8, 9, and 10.)
(§2) Whether other receptor molecules can also act as such FGF receptors was examined. An expression vector containing each FGFR (FGFR1b, R1c, R2b, R2c, R3b, R3c, and R4) (described in Ornitz, D. M., Xu, J., Colvin, J. S., McEwen, D. G., MacArthur, C. A., Coulier, F., Gao, G. and Goldfarb, M. (1996) Receptor specificity of the fibroblast growth factor family. J Biol Chem, 271, 15292-15297.) was introduced into betaKlotho-expressing BaF3 cells, so as to obtain clones that were resistant to Puromycin and G418, thereby obtaining FGFR/betaKlotho-expressing cells. Such cells were stimulated with FGF21, and the amount of DNA synthesized was measured.
The activity of FGF21 to stimulate the DNA synthesis of BaF3 cells that had expressed each FGFR (FGFR1c, R2c, F3c, and R4) as well as betaKlotho was compared with the activity of FGF19, which was evolutionally relative to FGF21. By procedures opposite to those of Example 5, namely, an expression vector containing betaKlotho was introduced into BaF3 cells that had expressed each type of FGFR, so as to obtain Puromycin- and G418-resistant clones, thereby obtaining FGFR/betaKlotho-expressing cells. The cells were stimulated with FGF21, FGF19, and FGF1 in the presence of heparin, while changing the amounts of FGF21, FGF19, and FGF1, as shown in the figure, and the amount of DNA synthesized was then measured.

[2] = target: T1, FGFR2c/betaKlotho-expressing BaF3 cells (Mus musculus, UniProt P21803+Q99N32); assay: DNA synthesis (thymidine incorporation) in FGFR2c/betaKlotho-expressing BaF3 cells; assay type: cell-based; conditions: BaF3 cells expressing FGFR2c and betaKlotho; presence of heparin
T1 construct: the entire-length cDNA of mouse betaKlotho was cloned into an animal cell expression vector; expressed in transfected cells; host or cells: BaF3 (mouse pro-B) cells
Description: as §1, §2
The activity of FGF21 to stimulate the DNA synthesis of BaF3 cells that had expressed each FGFR (FGFR1c, R2c, F3c, and R4) as well as betaKlotho was compared with the activity of FGF19, which was evolutionally relative to FGF21. […] The cells were stimulated with FGF21, FGF19, and FGF1 in the presence of heparin, while changing the amounts of FGF21, FGF19, and FGF1, as shown in the figure, and the amount of DNA synthesized was then measured.

[3] = target: T2, R1c/betaKlotho-expressing cells (Mus musculus, UniProt P16092+Q99N32); assay: Phosphorylation of FRS2 and MAPK (Western blotting) in R1c/betaKlotho-expressing cells; assay type: cell-based; conditions: presence of heparin; 10 minutes stimulation
T2 construct: the entire-length cDNA of mouse FGFR1c had been cloned; the entire-length cDNA of mouse betaKlotho was cloned into an animal cell expression vector; expressed in transfected cells; host or cells: BaF3 (mouse pro-B) cells
Description: (§3) Each FGFR/betaKlotho-expressing cells obtained in Example 6 were stimulated with FGF, and the activated state (phosphorylated state) of a signaling molecule FRS2 (fibroblast growth factor receptor substrate 2) located downstream of FGFR, and that of MAPK (mitogen activated protein kinase; alias: ERK (extracellular signal-regulated kinase; in general, there are two types of ERKs, namely, ERK1 with a molecular weight of 44 kDa and ERK2 with a molecular weight of 42 kDa)), were analyzed. Different types of cells were stimulated with each FGF in the presence of heparin for 10 minutes, and a cell lysate was then prepared. Thereafter, the phosphorylated degree was evaluated by measuring it by a Western blotting method using a commercially available anti-phosphorylation FRS2 antibody or an anti-phosphorylation MAPK antibody.

[4] = system: FGFR4/betaKlotho-expressing cells; assay: Phosphorylation of FRS2 and MAPK (Western blotting) in FGFR4/betaKlotho-expressing cells; assay type: cell-based, mouse; conditions: presence of heparin; 10 minutes stimulation
Description: as §3

[5] = system: R3c/betaKlotho-expressing cells; assay: Phosphorylation of FRS2 and MAPK (Western blotting) in R3c/betaKlotho-expressing cells; assay type: cell-based, mouse; conditions: presence of heparin; 10 minutes stimulation
Description: as §3

[6] = system: adipocytes differentiated from 3T3-L1 cells; assay: GLUT1 mRNA expression in 3T3-L1 cells differentiated into adipocytes; assay type: cell-based; conditions: various concentrations, 6 hours
Description: It has been reported that FGF21 allows adipocytes to increasingly express glucose transporter 1 (GLUT1). In the present example, as cultured adipocytes, there were used 3T3-L1 cells that are fibroblasts having the ability to differentiate into adipocytes by controlling culture conditions. The cells were cultured in a culture solution of a Dulbecco's modified Eagle medium (DMEM) containing 10% fetal bovine serum (FBS), so as to prepare cells maintaining an undifferentiated property as fibroblasts. The prepared cells were cultured in a test system, and they were allowed to grow to a confluent state. The cells were then left for 2 days. Thereafter, the culture solution was exchanged with DMEM as a culture solution used for differentiation induction, which comprised 10% FBS, 0.25 μM dexamethasone, 0.5 mM methyl isobutyl xanthine, and 5 μg/ml insulin. The cells were cultured for 2 days. […] The term “cells having the properties of adipocytes” is used herein to mean cells, which conduct intracellular metabolism specific to adipocytes and have cytoplasm in which large quantities of fat droplets are accumulated.
FGF21 were added in various types of concentrations to such different types of culture solutions, and the cells were further culture for 6 hours. Thereafter, RNA was extracted, and the copy number of GLUT1 was counted.

FGFR3c/betaKlotho-expressing BaF3 cells, sequence (Q61851 21-369 limits assumed): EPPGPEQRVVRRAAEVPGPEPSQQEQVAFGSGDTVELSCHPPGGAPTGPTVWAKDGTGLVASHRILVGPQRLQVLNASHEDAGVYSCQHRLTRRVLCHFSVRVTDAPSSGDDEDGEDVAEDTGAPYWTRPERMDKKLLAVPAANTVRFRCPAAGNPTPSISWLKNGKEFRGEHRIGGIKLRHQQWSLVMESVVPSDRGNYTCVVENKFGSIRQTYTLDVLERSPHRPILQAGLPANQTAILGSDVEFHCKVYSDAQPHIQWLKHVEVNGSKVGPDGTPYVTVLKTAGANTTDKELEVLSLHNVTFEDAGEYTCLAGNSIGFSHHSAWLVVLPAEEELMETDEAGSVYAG
FGFR3c/betaKlotho-expressing BaF3 cells, sequence (Q99N32 whole entry, further chain): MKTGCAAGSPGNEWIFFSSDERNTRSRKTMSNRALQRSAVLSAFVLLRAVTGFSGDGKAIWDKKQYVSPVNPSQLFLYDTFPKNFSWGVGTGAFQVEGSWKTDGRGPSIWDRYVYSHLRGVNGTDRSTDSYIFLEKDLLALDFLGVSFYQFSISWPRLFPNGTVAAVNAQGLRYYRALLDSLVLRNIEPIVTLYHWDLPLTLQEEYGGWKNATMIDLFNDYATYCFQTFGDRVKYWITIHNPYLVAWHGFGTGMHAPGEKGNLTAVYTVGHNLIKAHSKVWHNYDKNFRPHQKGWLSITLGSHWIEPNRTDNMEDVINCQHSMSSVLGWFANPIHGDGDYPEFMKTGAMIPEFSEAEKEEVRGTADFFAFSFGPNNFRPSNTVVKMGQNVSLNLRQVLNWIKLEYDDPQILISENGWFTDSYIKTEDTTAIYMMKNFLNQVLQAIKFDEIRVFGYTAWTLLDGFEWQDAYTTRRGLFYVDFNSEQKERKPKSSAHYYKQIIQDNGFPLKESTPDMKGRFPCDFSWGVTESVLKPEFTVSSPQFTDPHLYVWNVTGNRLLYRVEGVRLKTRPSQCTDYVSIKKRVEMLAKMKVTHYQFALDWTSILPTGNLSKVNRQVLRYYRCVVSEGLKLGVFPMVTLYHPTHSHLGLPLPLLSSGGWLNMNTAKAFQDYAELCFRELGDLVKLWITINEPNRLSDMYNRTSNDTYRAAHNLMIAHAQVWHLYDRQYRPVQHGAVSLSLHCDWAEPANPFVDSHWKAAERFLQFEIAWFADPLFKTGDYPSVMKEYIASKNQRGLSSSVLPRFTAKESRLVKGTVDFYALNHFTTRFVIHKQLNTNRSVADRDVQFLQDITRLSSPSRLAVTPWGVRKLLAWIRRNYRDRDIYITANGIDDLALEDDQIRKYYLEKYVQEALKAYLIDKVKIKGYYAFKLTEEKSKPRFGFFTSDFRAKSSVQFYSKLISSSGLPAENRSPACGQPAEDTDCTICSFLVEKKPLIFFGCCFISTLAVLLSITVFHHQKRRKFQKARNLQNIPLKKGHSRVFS
T1 sequence (P21803 22-821): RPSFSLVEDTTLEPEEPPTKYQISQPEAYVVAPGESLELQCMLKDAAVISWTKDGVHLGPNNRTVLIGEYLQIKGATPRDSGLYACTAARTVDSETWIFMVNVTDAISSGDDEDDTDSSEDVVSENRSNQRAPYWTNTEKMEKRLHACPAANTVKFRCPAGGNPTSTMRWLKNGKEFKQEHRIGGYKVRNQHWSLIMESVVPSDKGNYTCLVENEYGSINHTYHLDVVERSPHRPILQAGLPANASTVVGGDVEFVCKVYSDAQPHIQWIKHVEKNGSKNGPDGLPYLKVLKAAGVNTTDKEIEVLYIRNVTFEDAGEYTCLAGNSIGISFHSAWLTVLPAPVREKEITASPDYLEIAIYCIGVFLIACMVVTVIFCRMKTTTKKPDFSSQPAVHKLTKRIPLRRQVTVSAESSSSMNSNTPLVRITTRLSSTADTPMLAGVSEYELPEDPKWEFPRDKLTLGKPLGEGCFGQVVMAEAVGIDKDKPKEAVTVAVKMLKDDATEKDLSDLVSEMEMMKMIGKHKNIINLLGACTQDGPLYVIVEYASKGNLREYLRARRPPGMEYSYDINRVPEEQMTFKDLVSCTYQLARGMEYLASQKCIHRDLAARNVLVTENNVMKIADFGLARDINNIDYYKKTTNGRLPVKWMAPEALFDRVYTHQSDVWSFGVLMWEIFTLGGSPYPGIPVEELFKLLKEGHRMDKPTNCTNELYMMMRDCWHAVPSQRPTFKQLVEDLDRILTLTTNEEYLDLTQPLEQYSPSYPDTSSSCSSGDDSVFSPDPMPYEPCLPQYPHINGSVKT
T1 sequence (Q99N32 whole entry): as the sequence (Q99N32 whole entry, further chain) above
R3c/betaKlotho-expressing cells, sequence (Q61851 21-369 limits assumed): as the sequence (Q61851 21-369 limits assumed) above
R3c/betaKlotho-expressing cells, sequence (Q99N32 whole entry, further chain): as the sequence (Q99N32 whole entry, further chain) above
T2 sequence (P16092 22-822): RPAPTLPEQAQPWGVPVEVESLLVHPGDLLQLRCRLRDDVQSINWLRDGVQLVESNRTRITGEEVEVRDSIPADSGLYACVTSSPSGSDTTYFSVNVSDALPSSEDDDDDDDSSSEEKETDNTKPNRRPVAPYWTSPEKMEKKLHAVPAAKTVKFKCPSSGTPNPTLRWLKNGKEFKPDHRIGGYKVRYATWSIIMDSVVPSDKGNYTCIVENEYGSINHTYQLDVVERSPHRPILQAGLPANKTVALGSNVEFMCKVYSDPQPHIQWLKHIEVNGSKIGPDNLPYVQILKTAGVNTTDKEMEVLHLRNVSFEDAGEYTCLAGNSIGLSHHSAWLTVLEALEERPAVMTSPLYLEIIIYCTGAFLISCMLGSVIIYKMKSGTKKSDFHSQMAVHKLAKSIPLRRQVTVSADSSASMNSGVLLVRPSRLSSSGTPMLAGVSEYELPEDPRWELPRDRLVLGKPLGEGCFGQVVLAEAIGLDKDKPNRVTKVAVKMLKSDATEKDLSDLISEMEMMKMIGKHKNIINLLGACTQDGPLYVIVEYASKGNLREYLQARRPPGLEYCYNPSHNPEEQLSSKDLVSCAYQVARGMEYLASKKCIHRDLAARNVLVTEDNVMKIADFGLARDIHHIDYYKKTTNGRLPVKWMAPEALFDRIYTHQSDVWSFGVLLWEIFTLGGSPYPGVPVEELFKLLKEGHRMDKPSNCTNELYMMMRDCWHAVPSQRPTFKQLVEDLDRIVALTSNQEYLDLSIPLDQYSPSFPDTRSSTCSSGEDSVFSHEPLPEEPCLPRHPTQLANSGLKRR
T2 sequence (Q99N32 whole entry): as the sequence (Q99N32 whole entry, further chain) above
FGFR4/betaKlotho-expressing cells, sequence (Q03142 143-366 limits assumed): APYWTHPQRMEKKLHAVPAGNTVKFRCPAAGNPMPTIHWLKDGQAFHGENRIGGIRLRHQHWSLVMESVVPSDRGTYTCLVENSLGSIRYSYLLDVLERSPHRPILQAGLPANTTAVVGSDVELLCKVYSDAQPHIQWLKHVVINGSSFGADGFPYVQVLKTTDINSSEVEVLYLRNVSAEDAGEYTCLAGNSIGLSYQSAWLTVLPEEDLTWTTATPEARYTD
FGFR4/betaKlotho-expressing cells, sequence (as listed by the source): as the sequence (Q99N32 whole entry, further chain) above

Row | Molecule | DNA synthesis (thymidine incorporated into the cells) [1] | DNA synthesis (thymidine incorporated into the cells) [2] | phosphorylation of FRS2 and MAPK [3] | phosphorylation of FRS2 and MAPK [4] | phosphorylation of FRS2 and MAPK [5] | expression level of GLUT1 mRNA [6]
1 | FGF1: conventional FGF used as a control | reacts with all of the receptors | reacts with all of the receptors | significantly increase the phosphorylation | significantly increase the phosphorylation | significantly increase the phosphorylation | –
2 | FGF21: fibroblast growth factor 21; mouse-derived protein used in Examples 1-7 and 10-13 (protein) AYPIPDSSPLLQFGGQVRQRYLYTDDDQDTEAHLEIREDGTVVGAAHRSPESLLELKALKPGVIQILGVKASRFLCQQPDGALYGSPHFDPEACSFRELLLEDGYNVYQSEAHGLPLRLPQKDSPNQDATSWGPVRFLPMPGLLHEPQDQAGFLPPEPPDVGSSDPLSMVEPLQGRSPSYAS | reacted with FGF21; also recorded: activates | slightly react with FGFR2c | increases the phosphorylation | only in FGFR1c/betaKlotho-expressing cells and FGFR3c/betaKlotho-expressing cells | increases the phosphorylation | increased
